Results reported in PMC3858845 (Molecular bioSystems, 2014).
Values belong to the molecule of their own block, whether it stands above or below them.

Legend:
[1] = molecular target: amIYD (Apis mellifera, UniProt A0A7M7RAX7); test: FMN occupancy of purified enzyme from A450 and A280; format: binding; details: FMN bound as isolated
[2] = molecular target: hhIYD (Haliscomenobacter hydrossis, UniProt F4KU78); test: as above; format: binding; details: FMN bound as isolated
[3] = molecular target: T1, drIYD (Danio rerio, UniProt E7FDV5); test: as above; format: binding; details: FMN bound as isolated
T1 sequence (E7FDV5 24-295 limits assumed): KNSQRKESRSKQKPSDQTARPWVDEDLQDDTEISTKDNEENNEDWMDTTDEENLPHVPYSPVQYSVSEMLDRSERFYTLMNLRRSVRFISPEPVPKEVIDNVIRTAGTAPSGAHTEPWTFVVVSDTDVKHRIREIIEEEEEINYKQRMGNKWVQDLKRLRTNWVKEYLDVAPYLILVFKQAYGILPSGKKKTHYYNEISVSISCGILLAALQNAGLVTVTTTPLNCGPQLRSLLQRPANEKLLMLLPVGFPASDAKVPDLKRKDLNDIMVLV

[4] = molecular target: nvIYD (Nematostella vectensis, UniProt A7S5D9); test: as above; format: binding; details: FMN bound as isolated
[5] = molecular target: dpIYD (Daphnia pulex, UniProt E9FR69); test: as above; format: binding; details: FMN bound as isolated
[6] = molecular target: hmIYD (Hydra vulgaris, UniProt T2MBC4); test: as above; format: binding; details: FMN bound as isolated; partly purified enzyme
Chain of hmIYD (T2MBC4 43-272): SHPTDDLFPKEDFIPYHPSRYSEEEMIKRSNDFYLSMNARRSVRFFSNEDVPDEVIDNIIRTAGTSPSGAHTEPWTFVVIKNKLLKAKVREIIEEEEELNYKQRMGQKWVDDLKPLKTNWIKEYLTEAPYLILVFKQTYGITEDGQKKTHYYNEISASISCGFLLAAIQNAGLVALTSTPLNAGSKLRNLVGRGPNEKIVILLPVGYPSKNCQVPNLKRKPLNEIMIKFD

[7] = molecular target: bfIYD (Branchiostoma floridae, UniProt C3Y0Q6); test: as above; format: binding; details: FMN bound as isolated
[8] = substrate: N[C@@H](Cc1cc(I)c(O)c(I)c1)C(=O)O; test: purified protein; format: biochemical, Daphnia pulex; details: labelled compound; excess FMN present in assay
[9] = substrate: N[C@@H](Cc1cc(I)c(O)c(I)c1)C(=O)O; test: purified protein; format: biochemical, Haliscomenobacter hydrossis; details: labelled compound; excess FMN present in assay
[10] = substrate: N[C@@H](Cc1cc(I)c(O)c(I)c1)C(=O)O; test: purified protein; format: biochemical, Nematostella vectensis; details: labelled compound; excess FMN present in assay
[11] = substrate: N[C@@H](Cc1cc(I)c(O)c(I)c1)C(=O)O; test: purified protein; format: biochemical, Danio rerio; details: labelled compound; excess FMN present in assay

FMN occupancy [1]: 95%
FMN occupancy [2]: 95%
FMN occupancy [3]: 95%
FMN occupancy [4]: 55%
FMN occupancy [5]: 95%
FMN occupancy [6]: 59%
FMN occupancy [7]: 95%
Molecule: Cc1cc2nc3c(=O)[nH]c(=O)nc-3n(C[C@H](O)[C@H](O)[C@H](O)COP(=O)(O)O)c2cc1C [FMN]

B1: dpIYD (Daphnia pulex) (protein)
chain: VKRESAIEQINEIEDDDEQSLEDQDVLPILFQYEKPSEADSIRRSEEFYRRMNQRRSVREISSDPVALEVIENIIKTGGTSPSGAHTEPWTFVVVSNLEMKQQIRQIIEAEEEINYKQRMGDVWVQDLQPVGTTWVKEYLTEAPWLILIFKQVHGFKRNGQKKIHYYNEISVSIATGFLLAAIQEAGLVTVTTTPLNCGPSIRVLLGRPVNEKLLLLLPVGYPKVGATVPDFKRKPLHDIMVHYQ
Km [8]: 7 ± 1 µM
kcat [8]: 0.293 ± 0.0133 s⁻¹
kcat/Km [8]: 41700 ± 6670 M⁻¹ s⁻¹

B2: hhIYD (Haliscomenobacter hydrossis DSM 1100) (protein)
chain: MKQKPAFIPYAGAQFEPEEMLSKSAEYYQFMDHRRTVREFSNRAIPLEVIENIVMTASTAPSGAHKQPWTFVVVSDPQIKAKIRQAAEKEEFESYNGRMSNEWLEDLQPFGTDWHKPFLEIAPYLIVVFRKAYDVLPDGTQRKNYYVQESVGIACGFLLAAIHQAGLVALTHTPSPMNFLQKILQRPENERPFLLVPVGYPAEGAMVPDLQRKDKAAVMVVY
Km [9]: 6.6 ± 0.9 µM
kcat [9]: 0.09 ± 0.005 s⁻¹
kcat/Km [9]: 13300 ± 1670 M⁻¹ s⁻¹

B3: nvIYD (Nematostella vectensis) (protein)
chain: MEVFKALFKSKEAYTVDVDPMKDSDEHDLPRDPLSIRVTGEEEVNHIPYPYFDEIPTEEEMKKKSAEFYKSMKKRRTVRKISSEPVPLEVIENIVRVAGTSPSGAHTEPWTYVVIRDPDLKKQIKEVVEEEEQLNYARRMGEKWVQDLSILKTTWSKPYIETAPYLILIFKQVYGIKPDGDKKVHYYNEISVCISCGLLLAAIQNAGLVTVTSTPMNAGPRLRVLLNRPQNEKLIMLLPVGYPAKDAEVPNLTRKPLEEIMVLK
Km [10]: 105 ± 26 µM
kcat [10]: 0.533 ± 0.0667 s⁻¹
kcat/Km [10]: 5000 ± 1330 M⁻¹ s⁻¹

B4: drIYD (Danio rerio) (protein)
chain: KNSQRKESRSKQKPSDQTARPWVDEDLQDDTEISTKDNEENNEDWMDTTDEENLPHVPYSPVQYSVSEMLDRSERFYTLMNLRRSVRFISPEPVPKEVIDNVIRTAGTAPSGAHTEPWTFVVVSDTDVKHRIREIIEEEEEINYKQRMGNKWVQDLKRLRTNWVKEYLDVAPYLILVFKQAYGILPSGKKKTHYYNEISVSISCGILLAALQNAGLVTVTTTPLNCGPQLRSLLQRPANEKLLMLLPVGFPASDAKVPDLKRKDLNDIMVLV
Km [11]: 8 ± 1 µM
kcat [11]: 0.0683 ± 0.00333 s⁻¹
kcat/Km [11]: 8500 ± 1170 M⁻¹ s⁻¹
